Laboratory results from patent US20030054360.

Key:
Test in all cases: filter
Conditions in all cases: 5-BrdU replaces T, apparent photocrosslink KD
[1] = target: platelet-derived growth factor (PDGF) (Homo sapiens) (UniProt P01127)
Interleukin-4 = target: T1, Interleukin-4 (UniProt P05112)
T1 sequence: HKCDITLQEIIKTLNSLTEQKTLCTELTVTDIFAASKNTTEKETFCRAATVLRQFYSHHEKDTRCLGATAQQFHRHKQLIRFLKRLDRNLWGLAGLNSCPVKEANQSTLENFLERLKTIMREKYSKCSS

Angiogenin = Angiogenin (UniProt P03950)
[2] = target: beta-Nerve Growth Factor (beta-NGF) (UniProt P01138)
[3] = target: T2, P-Selectin (Homo sapiens) (UniProt P16109)
T2 sequence: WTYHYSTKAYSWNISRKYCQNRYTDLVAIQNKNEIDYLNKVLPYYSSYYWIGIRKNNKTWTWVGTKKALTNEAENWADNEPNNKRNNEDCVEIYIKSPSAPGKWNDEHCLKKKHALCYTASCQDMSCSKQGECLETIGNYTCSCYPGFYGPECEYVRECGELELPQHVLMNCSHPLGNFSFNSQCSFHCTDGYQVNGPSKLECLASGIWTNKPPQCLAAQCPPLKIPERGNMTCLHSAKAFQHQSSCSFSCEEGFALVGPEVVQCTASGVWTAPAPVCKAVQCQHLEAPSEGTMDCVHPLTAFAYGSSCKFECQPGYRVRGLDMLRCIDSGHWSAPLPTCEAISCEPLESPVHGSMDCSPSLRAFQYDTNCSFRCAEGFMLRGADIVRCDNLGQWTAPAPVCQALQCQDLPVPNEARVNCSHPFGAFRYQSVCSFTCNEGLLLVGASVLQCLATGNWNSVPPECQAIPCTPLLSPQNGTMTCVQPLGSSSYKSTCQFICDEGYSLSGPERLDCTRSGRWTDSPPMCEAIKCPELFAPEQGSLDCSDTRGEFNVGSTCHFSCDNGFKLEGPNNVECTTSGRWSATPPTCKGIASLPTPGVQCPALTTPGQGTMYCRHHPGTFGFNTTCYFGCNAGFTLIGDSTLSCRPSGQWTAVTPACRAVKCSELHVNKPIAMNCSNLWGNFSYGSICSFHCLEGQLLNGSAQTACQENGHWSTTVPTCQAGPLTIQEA

[4] = target: Transforming Growth Factor beta1 (TGF-beta1) (UniProt P01137)
Transforming Growth Factor beta1 (TGF-beta1), sequence (P01137 279-390): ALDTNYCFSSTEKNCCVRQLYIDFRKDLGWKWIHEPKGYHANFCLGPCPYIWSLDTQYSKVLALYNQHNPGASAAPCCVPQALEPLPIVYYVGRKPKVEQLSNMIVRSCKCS

beta-Nerve Growth Factor (beta-NGF), sequence (P01138 122-241): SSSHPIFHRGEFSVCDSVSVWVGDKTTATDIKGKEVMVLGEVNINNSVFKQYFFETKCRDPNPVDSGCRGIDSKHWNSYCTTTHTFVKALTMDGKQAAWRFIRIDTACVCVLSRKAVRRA
Angiogenin, sequence (P03950 25-147): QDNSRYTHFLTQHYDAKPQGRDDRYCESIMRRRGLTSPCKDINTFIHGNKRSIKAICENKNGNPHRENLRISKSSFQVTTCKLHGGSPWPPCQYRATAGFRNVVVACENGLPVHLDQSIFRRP
platelet-derived growth factor (PDGF) (Homo sapiens), sequence (P01127 82-190): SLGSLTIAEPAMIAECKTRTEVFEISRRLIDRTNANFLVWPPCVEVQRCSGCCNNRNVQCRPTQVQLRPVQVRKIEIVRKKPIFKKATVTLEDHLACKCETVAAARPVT

“ATATATATGGGAGGACGATGCGGGCCAACCCCTAGTGAACAACAACACTCCCACAGACGACGAGCGGGAAAAAAAA [PDGF pool 4 clone 87]” showed a Kd ([1]; plateau 36%, rate 0.29) of 2 nM.
“ATATATATGGGAGGACGATGCGGGCCGAAGTCTAAACCTGCTCGTGACTTTCTTTCGATGTTGCAGACGACGAGCGGGAAAAAAAA [IL-4 pool 012 clone 8]” showed a Kd (Interleukin-4; plateau 40%, rate 1.8) of 39 nM.
Sequence “ATATATATGGGAGGACGATGCGGCAAGGGAAACAGATAGCCCAGGCTCCCCCCCAGACGACGAGCGGGAAAAAAAA [PDGF pool 008 clone 37]” has a Kd ([1]; plateau 74%, rate 0.21) of 2.4 nM.
“ATATATATGGGAGGACGATGCGGGCCCTACTTGCATGAATATCCACTCCTAGGCTTGAGGGAGCAGACGACGAGCGGGAAAAAAAA [Angiogenin pool 011 clone 85]” gave a Kd (Angiogenin; plateau 31%, rate 3.5) of 0.2 nM.
“ATATATATGGGAGGACGATGCGGCCGGACATCCCCCAGGGCAAAACCAACTCCCAGACGACGAGCGGGAAAAAAAA [PDGF pool 008 clone 35]” gave a Kd ([1]; plateau 71%, rate 0.07) of 5.1 nM.
For “ATATATATGGGAGGACGATGCGGCCATACGCACTTCAGTGGGGATAATCCAACTGGTTTGGTGCAGACGACGAGCGGGAAAAAAAA [beta-NGF pool 031 clone 43]”, the Kd ([2]; plateau 38%) was 7.9 nM.
In the case of “ATATATATGGGAGGACGATGCGGCCATACGCACTTCAGTGGGGATAATCCAACTGGTTTGGTGCAGACGACGAGCGGGAAAAAAAA [P-selectin pool 014 clone 95]”, the Kd ([3]; plateau 39%, rate 1.54, same sequence as SEQ 39) is reported as 45 nM.
Work on “ATATATATGGGAGGACGATGCGGGCACAATCAAGACCTCTCCAAACTTGAACTCTGTCTATCCCAGACGACGAGCGGGAAAAAAAA [TGF-beta1 pool 015 clone 87]” yielded a Kd ([4]; plateau 80%, rate 0.5) of 62 nM.
“ATATATATGGGAGGACGATGCGGGCACACTTAAATCCACTTCACCTTACAATTCCTTTATCTGCAGACGACGAGCGGGAAAAAAAA [beta-NGF pool 031 clone 17]” was tested, and the Kd ([2]; plateau 66%, rate 1.2, Table 7 sequence differs slightly from listing) was 0.21 nM.
Work on “ATATATATGGGAGGACGATGCGGGACCAAATACCAACTTCACATCACCTTTCTTATTCTCCGGCAGACGACGAGCGGGAAAAAAAA [beta-NGF pool 031 clone 44]” yielded a Kd ([2]; plateau 58%, rate 0.59) of 2.2 nM.
“ATATATATGGGAGGACGATGCGGGCACTAACTTTACCTCCACCTCTAACCACCCTCCTTTCTGCAGACGACGAGCGGGAAAAAAAA [beta-NGF pool 031 clone 65]” showed a Kd ([2]; plateau 47%, rate 0.94) of 0.2 nM.
With “ATATATATGGGAGGACGATGCGGGCACCTACCTGAGCTACATATGACAGTGTCACCCTGGCCCCAGACGACGAGCGGGAAAAAAAA [Angiogenin pool 011 clone 14]” the Kd (Angiogenin; plateau 34%, rate 1.3) was 0.2 nM.
“ATATATATGGGAGGACGATGCGGGCCTACCAACTCCCCTCTAGTCCTGTTCTATCCACGTTGGCAGACGACGAGCGGGAAAAAAAA [IL-4 pool 012 clone 31]” showed a Kd (Interleukin-4; plateau 49%, rate 0.98) of 21 nM.
For “ATATATATGGGAGGACGATGCGGGCACAACCTTACCACCCTAGCCTACCCCTAACCTCCTGTCCAGACGACGAGCGGGAAAAAAAA [TGF-beta1 pool 015 clone 74]”, the Kd ([4]; plateau 79%, rate 0.34) was 4.9 nM.
“ATATATATGGGAGGACGATGCGGGCTCAATAACCTGAATCTACCTTTCCCTAGCAAAGGTCTGCAGACGACGAGCGGGAAAAAAAA [P-selectin pool 014 clone 24]” was tested, and the Kd ([3]; plateau 30%, rate 1.86) was 2.1 nM.
Sequence “ATATATATGGGAGGACGATGCGGCACGAGGGAATCACCTCGAACTTGTCCTGGATTACTGCCCAGACGACGAGCGGGAAAAAAAA [P-selectin pool 014 clone 21]” has a Kd ([3]; plateau 31%, rate 0.76) of 9.1 nM.
For “ATATATATGGGAGGACGATGCGGGCCAACCACGTGGTATTATTGACCTTGCAATGGGAATGCCCAGACGACGAGCGGGAAAAAAAA [Angiogenin pool 011 clone 11]”, the Kd (Angiogenin; plateau 23%, rate 1.46) was 1.1 nM.
“ATATATATGGGAGGACGATGCGGGGCAAACTGCGTCGTATTATAAGCCTCGCTACAGATGCCACAGACGACGAGCGGGAAAAAAAA [Angiogenin pool 011 clone 12]” showed a Kd (Angiogenin; plateau 31%, rate 0.68) of 0.1 nM.
Sequence “ATATATATGGGAGGACGATGCGGGACCAATAACACTACACTGATCATCTCCCTTCTATGTCCCCAGACGACGAGCGGGAAAAAAAA [beta-NGF pool 031 clone 7]” has a Kd ([2]; plateau 55%, rate 0.42) of 2.5 nM.
In the case of “ATATATATGGGAGGACGATGCGGGCGGAAGAGGCAGGGTACCACGGCAGAGGTCAGACGACGAGCGGGAAAAAAAA [PDGF pool 4 clone 24]”, the Kd ([1]; plateau 52%, rate 0.25) is reported as 2 nM.
For “ATATATATGGGAGGACGATGCGGGCCAAGGTTCCCTTCTGCCTCATTGTTGTGGGAACCCATCCAGACGACGAGCGGGAAAAAAAA [IL-4 pool 012 clone 41]”, the Kd (Interleukin-4; plateau 58%, rate 0.54, Table 7 sequence differs slightly from listing) was 61 nM.
With “ATATATATGGGAGGACGATGCGGCACAAGGAACAAAGCGGCCCCTATCCCCAACAGACGACGAGCGGGAAAAAAAA [PDGF pool 008 clone 31]” the Kd ([1]; plateau 100%, rate 0.19) was 5.3 nM.
Work on “ATATATATGGGAGGACGATGCGGGCAAAGTCTTGGTCCACCAAATATGTGATGTCACCACCAGCAGACGACGAGCGGGAAAAAAAA [Angiogenin pool 011 clone 59]” yielded a Kd (Angiogenin; plateau 26%, rate 0.52) of 0.22 nM.
For “ATATATATGGGAGGACGATGCGGGGGGCAAGAAGCACGGTACCCCAGGTCCGCCAGACGACGAGCGGGAAAAAAAA [PDGF pool 008 clone 33]”, the Kd ([1]; plateau 100%, rate 0.24) was 5.7 nM.
With “ATATATATGGGAGGACGATGCGGCCCCGAGTTTCCCTAAGGTTTGGTTGACCTGTCATTTCAGCAGACGACGAGCGGGAAAAAAAA [IL-4 pool 012 clone 48]” the Kd (Interleukin-4; plateau 52%, rate 0.17) was 4.3 nM.
“ATATATATGGGAGGACGATGCGGGCCACGTGTATTATCCTCAGCTTATAGCCATGGCATGGACCAGACGACGAGCGGGAAAAAAAA [Angiogenin pool 011 clone 58]” gave a Kd (Angiogenin; plateau 16%, rate 1.58) of 2.2 nM.
With “ATATATATGGGAGGACGATGCGGGCAGCAACCTACCTTACCTTCCCCTAGCCTACCTTATCCCCAGACGACGAGCGGGAAAAAAAA [TGF-beta1 pool 015 clone 82]” the Kd ([4]; plateau 100%, rate 0.54) was 7.1 nM.
With “ATATATATGGGAGGACGATGCGGGCCAAGGACATTCTTGTTCGTTGTTGCTGTCCACTGTCTCCAGACGACGAGCGGGAAAAAAAA [IL-4 pool 012 clone 78]” the Kd (Interleukin-4; plateau 10%, rate 1.7) was 9.7 nM.
In the case of “ATATATATGGGAGGACGATGCGGGCCAAATGGACTTTTCGCCACGAACTTACGACGGTGTTGCCAGACGACGAGCGGGAAAAAAAA [Angiogenin pool 011 clone 16]”, the Kd (Angiogenin; plateau 28%, rate 2.6) is reported as 0.3 nM.
Work on “ATATATATGGGAGGACGATGCGGCGCCCCGATTGACCTTCGATTTATCCTACTTATGGCACCCCAGACGACGAGCGGGAAAAAAAA [P-selectin pool 014 clone 14]” yielded a Kd ([3]; plateau 15%, rate 4) of 0.35 nM.
“ATATATATGGGAGGACGATGCGGGCGAAGGCACACCGAGTTCATAGTATCCCACAGACGACGAGCGGGAAAAAAAA [PDGF pool 4 clone 64]” showed a Kd ([1]; plateau 53%, rate 0.2) of 4 nM.
“ATATATATGGGAGGACGATGCGGCAGCACCGAGGTACCCAACAGGGATCCGCCCAGACGACGAGCGGGAAAAAAAA [PDGF pool 008 clone 26]” gave a Kd ([1]; plateau 67%, rate 0.43) of 1.8 nM.
Work on “ATATATATGGGAGGACGATGCGGGCCCCAAACACTTGTTCCTATCTTTCAACCCCCCTTGATCCAGACGACGAGCGGGAAAAAAAA [beta-NGF pool 031 clone 78]” yielded a Kd ([2]; plateau 94%, rate 0.38) of 31 nM.
Work on “ATATATATGGGAGGACGATGCGGCCATGAACCCATCCTCTGGTTCATAATCGACGTGTTCGTGCAGACGACGAGCGGGAAAAAAAA [P-selectin pool 014 clone 17]” yielded a Kd ([3]; plateau 59%, rate 1.36) of 18 nM.
“ATATATATGGGAGGACGATGCGGCACCAAAAGGTGGTCTTAGCCTAATTATGGACGTGTCCACCAGACGACGAGCGGGAAAAAAAA [Angiogenin pool 011 clone 27]” showed a Kd (Angiogenin; plateau 37%, rate 0.62) of 0.3 nM.
Work on “ATATATATGGGAGGACGATGCGGGCGGCAGACGCGCCGGGTACCCCAGGTCCCCAGACGACGAGCGGGAAAAAAAA [PDGF pool 008 clone 27]” yielded a Kd ([1]; plateau 100%, rate 0.34) of 3.2 nM.
